The values that follow are results of earlier work, collected in PMC3121775.

A word on the Kd: it is the concentration at which binding is half-saturated.

This series deals with Harakiri BH3 peptide BH3 (Homo sapiens) (UniProt O00198). The experiment in a line: fluorescence.

Sequence of Bcl-xL (Q07817 whole entry): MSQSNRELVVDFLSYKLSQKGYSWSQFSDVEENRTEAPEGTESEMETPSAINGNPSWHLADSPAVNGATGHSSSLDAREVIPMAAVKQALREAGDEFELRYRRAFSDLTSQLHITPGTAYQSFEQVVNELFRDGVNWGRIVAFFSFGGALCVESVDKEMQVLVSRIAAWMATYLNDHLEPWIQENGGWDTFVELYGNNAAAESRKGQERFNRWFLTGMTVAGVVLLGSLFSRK

In the case of Bcl-xL (from UniProt Q07817), the Kd was 92 nM.
